Tests used:
G5N M403E = G5N M403E (Homo sapiens, UniProt Q8TEQ6 1-726, M403E); assay: FP
G5N WT [1] = target: T1, G5N WT (Homo sapiens, UniProt Q8TEQ6 1-726); assay: FP
G5N R335E = G5N R335E (Homo sapiens, UniProt Q8TEQ6 1-726, R335E); assay: FP
G5N N13A = G5N N13A (Homo sapiens, UniProt Q8TEQ6 1-726, N13A); assay: FP
G5N Y383F = G5N Y383F (Homo sapiens, UniProt Q8TEQ6 1-726, Y383F); assay: FP
G5N R33A = G5N R33A (Homo sapiens, UniProt Q8TEQ6 1-726, R33A); assay: FP
G5N R359A = G5N R359A (Homo sapiens, UniProt Q8TEQ6 1-726, R359A); assay: FP
G5N M357A = G5N M357A (Homo sapiens, UniProt Q8TEQ6 1-726, M357A); assay: FP
G5N Y474A = G5N Y474A (Homo sapiens, UniProt Q8TEQ6 1-726, Y474A); assay: EMSA
G5N WT [2] = target: T1, G5N WT; assay: EMSA
G5N WT [3] = target: T1, G5N WT; assay: crystal structure
G5N WT [4] = target: T1, G5N WT; assay: EMSA; remark: listed apart in the source

T1 sequence (Q8TEQ6 1-726): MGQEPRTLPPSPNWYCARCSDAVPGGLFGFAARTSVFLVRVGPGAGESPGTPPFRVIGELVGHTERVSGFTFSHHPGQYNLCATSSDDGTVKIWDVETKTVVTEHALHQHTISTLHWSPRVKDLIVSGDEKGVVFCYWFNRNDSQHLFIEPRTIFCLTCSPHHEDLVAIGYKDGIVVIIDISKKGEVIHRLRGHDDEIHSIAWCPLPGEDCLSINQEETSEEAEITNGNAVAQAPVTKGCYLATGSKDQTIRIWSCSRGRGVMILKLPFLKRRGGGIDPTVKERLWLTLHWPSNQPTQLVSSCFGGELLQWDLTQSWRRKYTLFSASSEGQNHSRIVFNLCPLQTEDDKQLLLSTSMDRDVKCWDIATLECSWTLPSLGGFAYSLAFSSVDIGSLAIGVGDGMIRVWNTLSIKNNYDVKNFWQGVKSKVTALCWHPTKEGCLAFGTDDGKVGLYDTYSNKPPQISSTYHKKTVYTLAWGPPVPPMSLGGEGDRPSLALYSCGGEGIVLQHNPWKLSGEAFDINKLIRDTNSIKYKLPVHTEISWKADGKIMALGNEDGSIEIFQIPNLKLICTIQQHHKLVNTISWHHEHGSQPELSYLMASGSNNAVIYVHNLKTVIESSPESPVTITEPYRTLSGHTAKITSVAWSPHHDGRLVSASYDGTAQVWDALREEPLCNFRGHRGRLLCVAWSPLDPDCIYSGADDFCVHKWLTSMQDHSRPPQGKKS
G5N Y474A, sequence (Q8TEQ6 1-726 Y474A): as the sequence (Q8TEQ6 1-726) above, with Y474A counted along it
G5N M403E, sequence (Q8TEQ6 1-726 M403E): as the sequence (Q8TEQ6 1-726) above, with M403E counted along it
G5N N13A, sequence (Q8TEQ6 1-726 N13A): as the sequence (Q8TEQ6 1-726) above, with N13A counted along it
G5N R33A, sequence (Q8TEQ6 1-726 R33A): as the sequence (Q8TEQ6 1-726) above, with R33A counted along it
G5N M357A, sequence (Q8TEQ6 1-726 M357A): as the sequence (Q8TEQ6 1-726) above, with M357A counted along it
G5N R335E, sequence (Q8TEQ6 1-726 R335E): as the sequence (Q8TEQ6 1-726) above, with R335E counted along it
G5N Y383F, sequence (Q8TEQ6 1-726 Y383F): as the sequence (Q8TEQ6 1-726) above, with Y383F counted along it
G5N R359A, sequence (Q8TEQ6 1-726 R359A): as the sequence (Q8TEQ6 1-726) above, with R359A counted along it

Q: Which Kd (G5N M403E) does the source give for GCAAUUUUUGACA (ssRNA) [U4 13-mer, FITC] here?
A: 2 µM

Q: And the Kd (G5N WT [1])?
A: 0.24 µM

Q: And the Kd (G5N R335E)?
A: 96.7 µM

Q: What about the Kd (G5N N13A) of the same binder?
A: 1.4 µM

Q: What about the Kd (G5N Y383F) of the same binder?
A: 3.8 µM

Q: And the Kd (G5N R33A)?
A: 3.3 µM

Q: And the Kd (G5N R359A)?
A: 46.6 µM

Q: And the Kd (G5N M357A)?
A: 8.1 µM

Q: Does GCAAUUUUUGACA (ssRNA) [U4 13-mer] bind (G5N Y474A)?
A: binds

Q: Does CAAUUUUUGAC (ssRNA) [U4 11-mer] bind (G5N WT [2])?
A: binds

Q: Does CAAUUUUUG (ssRNA) [U4 9-mer (soak)] bind (G5N WT [3])?
A: binds

Q: Does AUUUUUG (ssRNA) [U4 7-mer (bare Sm site)] bind (G5N WT [3])?
A: binds

Q: Does AAUUUUUG (ssRNA) [U4 8-mer] bind (G5N WT [4])?
A: binds
